Results on two substances are retold here after paper PMC13167113.

Assay [1] concerns the target CXCR4 endogenous on cells (human (endogenous in Daudi and Jurkat)) (UniProt P61073).
Assay [2] shares this target. This is another data set of the same source.

Sequence of UniProt P61073 (P61073 whole entry): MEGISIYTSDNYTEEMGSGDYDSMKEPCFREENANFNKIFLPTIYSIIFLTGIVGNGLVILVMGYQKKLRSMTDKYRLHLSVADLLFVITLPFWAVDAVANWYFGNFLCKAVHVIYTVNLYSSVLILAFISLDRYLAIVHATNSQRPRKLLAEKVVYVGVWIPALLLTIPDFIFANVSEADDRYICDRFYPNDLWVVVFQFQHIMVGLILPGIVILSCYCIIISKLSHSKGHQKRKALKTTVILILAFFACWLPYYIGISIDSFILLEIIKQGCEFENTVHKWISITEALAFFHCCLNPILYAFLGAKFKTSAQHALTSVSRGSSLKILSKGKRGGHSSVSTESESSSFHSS

The substance “recombinant X4 HIV-1 gp120 (residues 31-507, isolate HXB2) with a C-terminal histidine tag (from UniProt P04578 31-507) (domain or fragment)” came in with an SPT-TIRF: percentage of CXCR4-AcGFP particles that are nanoclusters (≥3 receptors/particle) on JKCD4+X4- cells on X4-gp120-coated coverslips (basal ∼2%) in assay [1] of 18%.
In assay [2], “X4 HIV-1 Env (gp120 and gp41) of HXB2 on virus-like particles (from UniProt P04578 33-511; P04578 512-856) (complex)” had an SPT-TIRF: percentage of CXCR4-AcGFP particles that are nanoclusters (≥3 receptors/particle) on JKCD4+X4- cells on gp120-VLP-coated coverslips (basal ∼1%; Env(-) VLPs ∼9%) of 29%.
